This note sets out measurements from patent US20170240614A1.

Assay [1] has as its target human insulin receptor isoform B (hIR-B) containing a C9 epitope tag at the C-terminus (human) (UniProt P06213). The assay is described as follows: cell-based or functional assay.
The target of assay [2] is human insulin receptor isoform A (hIR-A) (human) (UniProt P06213). Nature of the assay: competitive radioligand binding (SPA), [125I]-A14-insulin, hIR-A membranes.
The target in assay [3] is human insulin receptor isoform B (hIR-B) containing a C9 epitope tag at the C-terminus (human) (UniProt P06213). Nature of the assay: competitive radioligand binding (SPA), [125I]-A14-insulin, hIR-B membranes.

As a reminder, the Ki is the equilibrium dissociation constant of an inhibitor or competing ligand from its target. Lower therefore signals a stronger hold on the target. Turning to “IGF-1 (from UniProt P05019 49-118) (ligand)”, the Receptor Phosphorylation EC50 in assay [1] worked out at 253 nM. Also, the values for the Ki in assay [2] and in assay [3] were 4.1 nM and 50.8 nM, respectively.
